Experimental data: US20210371467A1

Columns and labels:
[1] = target: Npu^C-CFN (Nostoc puminciforme PCC73102 (Npu)); test: cell-based or functional assay
[2] = target: Ssp^C A136S-CFN (Synechocystis Species PCC6803 (Ssp)); test: cell-based or functional assay

Sequence of Npu^C-CFN (Nostoc puminciforme PCC73102 (Npu)) (chain, as listed by the source): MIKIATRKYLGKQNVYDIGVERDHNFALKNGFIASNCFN

- protein trans-splicing half-life (t1/2) at 30° C., in vitro PTS assay [1]: 50 s
- rate of branch resolution [2]: 2 fold
Substance: Npu^N (AEY-Npu^N, product of plasmid 2 after cleavage of the His6-SUMO tag)
